Laboratory results as given in article PMC7617732 (2024).

How the values were obtained:
Assay in all cases: SPR
3FTx-L8 = molecular target: 3FTx-L8
m6 = molecular target: m6
m7 = molecular target: m7
[1] = molecular target: T1, 3FTx-L15 (recombinant long-chain three-finger α-neurotoxin variant)
T1 chain: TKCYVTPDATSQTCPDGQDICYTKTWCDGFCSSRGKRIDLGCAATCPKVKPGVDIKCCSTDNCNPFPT

[2] = molecular target: T2, 3FTx-L2 (recombinant long-chain three-finger α-neurotoxin variant)
T2 chain: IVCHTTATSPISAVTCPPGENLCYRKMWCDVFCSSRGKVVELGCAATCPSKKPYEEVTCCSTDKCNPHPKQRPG

B1: 95Mat5 (human IgG) (antibody, V domains shown)
VH: QVQLVQSGAEVKKPGSSVKVSCKASGGTFSSYAISWVRQAPGQGLEWMGGYIPIFGTANYAQKFQGRVTITADESTSTAYMELSSLRSEDTAVYYCARIPLRWYESGPYESGVFDYWGQGTLVTVSS
VL: not shown
Kd (3FTx-L8): < 0.01 nM
Kd (m6): 0.11 nM
Kd (m7): 0.24 nM
Kd [1]: 0.61 nM
Kd [2]: 0.72 nM
